# Measurements: the supplement of paper PMC9170038
# Test system: MS2 coat protein
# Assay: apparent KD of MS2 coat protein; higher = weaker reporter binding
# Details: Eterna round: R107
# Summary of the method: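 Apparent KD was obtained for each design as the median of normalised binding-curve fits over its clusters. RNA switches transcribed on-chip from Illumina sequencing clusters were titrated with SNAP-549-labelled MS2 coat protein (twofold steps, 0.7 or 1.5 nM to 3 µM) in 100 mM Tris-HCl pH 7.5, 80 mM KCl, 4 mM MgCl2, without or with constant ligand.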
# [1] = input ligand: theophylline 20 uM
# [2] = input ligand: theophylline 2 mM
# [3] = input ligand: tryptophan 2.4 mM
Sequence,apparent KD of MS2 coat protein (input ligand: arginine 13.2 mM),apparent KD of MS2 coat protein (input ligand: none),apparent KD of MS2 coat protein [1],apparent KD of MS2 coat protein [2],apparent KD of MS2 coat protein [3]
GGACUAACCAGAAGGAGCGACACGCAGAAACUGCAAUUUCCUCCACACGAGGAUCACCCGUGUCAGGUAGGUCGCUGGUUAGUCG,28.3 nM,25.4 nM,37.3 nM,31 nM,26.7 nM
GGACUAACCAGAAGGAGCGACACGCAGAAACUGCAAUUUCCUCUACACGAGGAUCACCCGUGUCAGGUAGGUCGCUGGUUAGUCG,50 nM,53.1 nM,74.8 nM,65 nM,54 nM
GGACUAACCAGAAGGAGCGACACGCAGAAACUGCUAAAUCCUCCGCACGAGGAUCACCCGUGUCAGGUAGGUCGCUGGUUAGUCG [ArgBX 28],36.2 nM,45.5 nM,66.7 nM,47.5 nM,49.9 nM
GGACUAACCAGAAGGAGCGAUACGCAGAAACUGCAAUUUCCUCUACACGAGGAUCACCCGUGUCAGGUAGGUCGCUGGUUAGUCG,25.2 nM,26.9 nM,35.2 nM,29.7 nM,26.7 nM
GGACUAACCAGAAGGAGCGGCACGCAGAAACUGCAAUUUCCUCCGCACGAGGAUCACCCGUGUCAGGUAGGUCGCUGGUUAGUCG,21.8 nM,20.4 nM,27.5 nM,24.5 nM,25.4 nM
GGACUAACCAGAAGGAGCGGCACGCAGAAACUGCUAAUUCCUCCGCACGAGGAUCACCCGUGUCAGGUAGGUCGCUGGUUAGUCG [ArgBX 28],14.9 nM,11.3 nM,13.8 nM,14.8 nM,13 nM
GGACUAACUCGAAGGAGCGACACGCAGAAACUGCAAUUUCCUCCACACGAGGAUCACCCGUGUCAGGUAGGUCGCGAGUUAGUCG [ArgBX 29],20.8 nM,21.8 nM,26.3 nM,28 nM,19.8 nM
GGAUAGGACACGGCCGCCACUACCUAGGAUACUAGCAACAUUUGGGUACAAGAGGAUCACCCUUGUAGGACCGGGUGUCCUAUCG,23.1 nM,22.1 nM,28 nM,25.5 nM,59 nM
GGAUAGGACACGGCCGCCACUAUCUAGGAUACUAGCAACAUUUGGGUAUAUGAGGAUCACCCAUAUAGGACCGGGUGUCCUAUCG,138 nM,214 nM,330 nM,303 nM,471 nM
GGAUAGGACAGAAGGAGCGACAUGGCGACGAAAGUCGGACCUUCACAUGAGGAUCACCCAUGUCAGGUAGGUCGCUGUCCUAUCG [ArgXB 6 #MS2Gate #StaticStem],38 nM,48.4 nM,55.2 nM,52.4 nM,46.1 nM
GGAUCCAUCCGAAGGAGCGUCGGAAAUGGGUAAACAUGAGGAUCACCCAUGUAAAGGGAACGGCAGGUAGGUCGCGGAUGGAUCC [#25 Same State - Arginine B],132 nM,99.1 nM,167 nM,157 nM,195 nM
GGAUGAAACUGAAGGAGCGAGAACACAAGAAUGGGUCAAACAUGAGGAUCACCCAUGUAAUCUCAGGUAGGUCGCAGUAUCCCUU [Exclusion Arginine B GF 10],44 nM,34.3 nM,50 nM,53.3 nM,36.6 nM
GGCCCUGCGGGCGCCCGCAGGGCCGCGGAUACCAGCGAGGUCCAUCGCCCUUGGCAGCCGAACAUGAGGAUCACCCAUGUCGGUG [Same State - Theophylline A Attempt #8 (HarryS)],10.6 nM,12.9 nM,20.4 nM,89.6 nM,12.9 nM
GGCCGAUGGUGCGAUACCAGCUUGAGUGUACUGGCCAGGUACAUGAGGAUCACCCAUGUAAGCCCUUGGCAGCGCGUCAGAGGCC [#1 Exclusion - Theophylline B Attempt #21 (HarryS)],–,–,15.5 nM,–,11.3 nM
GGCGCGCGCCAACAUGAGGAUCACCCAUGUCGAGGACCGGUACGGCCGCCACUCGAACGAGUGAAGCGCGCGCGCGGGCGACCGC [Saa],36.6 nM,39.7 nM,42.5 nM,47.1 nM,77.1 nM
GGCGUCGGGCGAAGGAGCGUGAAGACAUGAGGAUCACCCAUGUAGAGGCCCGGACAGGGUUCGCAGGUAGGUCGCGCGCGGUGCC [#1 Same State - Arginine B Attempt #7 (HarryS)],17.5 nM,13.7 nM,23.2 nM,19.5 nM,16.9 nM
GGCUGCGAUGGCGGAAAUUAUUUACAUAGGCGAGGACCGGUACGGCCGCCACUCGAACGUACAUGAGGAUCACCCAUGUGAUAAU [theeternabot_sameState_MS2_Trp_A_1],29 nM,–,59.9 nM,70.8 nM,–
GGGACUAGAUCGGCCGCCACUGAUGGGACAUGAGGAUCACCCAUGUACGAAGUGAUCCAAUAAAUCAGGACCGGGAUCACUUGUA [Tryp B Ex t6],64.3 nM,–,137 nM,173 nM,–
GGGCCCGUAAGCAGGCCCACAGCGGGUGAUACCAGCAAUAAAACUUGCCCUUGGCAGCACACAGCUACAUGAGGAUCACCCAUGU [Mausdi],24.3 nM,–,59.3 nM,–,88.6 nM
